According to patent US12594347B2, “Nanoparticulate drug delivery systems” (Duke University, priority 2018, dated 2026):
Where “and” joins values, the source holds several entries; their conditions need not be identical. Identical values can stand only once.

How the values were obtained:
[1] = Canine serum chemistry one week after administration; assay type: in vivo, dogs (beagles and hounds); conditions: dogs
Text: Canine pharmacokinetics and toxicities. […] If noted, supportive care was provided.

[2] = Canine pharmacokinetics; conditions: dogs
Text: Canine pharmacokinetics and toxicities. […] All procedures and protocols involving care, handling, and dosing for this study were reviewed and approved by the Institutional Animal Care and Use Committee (IACUC) at North Carolina State University College of Veterinary Medicine, which is an AAALAC-accredited facility. The animals' health status were monitored daily by the animal technicians and veterinary staff, paying particular attention for signs of gastrointestinal toxicities including vomiting, diarrhea, lethargy, and inappetence. If noted, supportive care was provided. […] 2 mL blood samples were drawn from jugular vein at 40 s, 15 and 30 min, 2, 4, 8, 24, 48, and 72 h after injection, diluted into 400 μL heparinized PBS (1000 UmL^−1). Sample processing and analysis were performed as with murine pharmacokinetics studies.

[3] = one week after administration, individual subjects
[4] = cephalic vein, 27 DOX Equiv/m^−2 BSA or 0.9 mg DOX Equiv/kg BW

B1: ABDN-CP-DOX (conjugate)
chain: LAEAKVLANRELDKYGVSDYYKNLINNAKTVEGVKALIDEILAALPVPGAGVPGAGVPGAGVPGAGVPGAGVPGAGVPGAGVPGAGVPGAGVPGAGVPGAGVPGAGVPGAGVPGAGVPGAGVPGAGVPGAGVPGAGVPGAGVPGAGVPGAGVPGAGVPGAGVPGAGVPGAGVPGAGVPGAGVPGAGVPGAGVPGAGVPGAGVPGAGVPGAGVPGAGVPGAGVPGAGVPGAGVPGAGVPGAGVPGAGVPGAGVPGAGVPGAGVPGAGVPGAGVPGAGVPGAGVPGAGVPGAGVPGAGVPGAGVPGAGVPGAGVPGAGVPGAGVPGAGVPGAGVPGAGVPGAGVPGAGVPGAGVPGAGVPGAGVPGAGVPGAGVPGAGVPGAGVPGAGVPGAGVPGAGVPGAGVPGAGVPGAGVPGAGVPGAGVPGAGVPGAGVPGAGVPGAGVPGAGVPGAGVPGAGVPGAGVPGAGVPGAGVPGAGVPGAGVPGAGVPGAGVPGAGVPGAGVPGAGVPGAGVPGAGVPGAGVPGAGVPGAGVPGAGVPGAGVPGAGVPGAGVPGAGVPGAGVPGAGVPGAGVPGAGVPGAGVPGAGVPGAGVPGAGVPGAGVPGAGVPGAGVPGAGVPGAGVPGAGVPGAGVPGAGVPGAGVPGAGVPGAGVPGAGVPGAGVPGAGVPGAGVPGAGVPGAGVPGAGVPGAGVPGAGVPGAGVPGAGVPGAGVPGAGVPGAGVPGAGVPGAGVPGAGVPGAGVPGAGVPGAGVPGAGVPGAGCGGCGGCGGCGGCGGCGGCGGCGG
ALT [1, 3]: 18 IU/L and 21 IU/L | AST [1, 3]: 20 IU/L and 31 IU/L | Alb/Glob Ratio [1, 3]: 1.73 and 1.57 | Albumin [1, 3]: 3.8 g/dL and 3.6 g/dL | Alkaline Phosphatase [1, 3]: 26 IU/L and 31 IU/L | Amylase [1, 3]: 597 IU/L and 677 IU/L | Anion Gap [1, 3]: 21 and 20.4 | Bicarbonate [1, 3]: 22 mmol/L and 21 mmol/L | Bilirubin-Total [1, 3]: <0.2 mg/dL | CK [1, 3]: 141 IU/L and 296 IU/L | Calcium [1, 3]: 10.3 mg/dL and 10.7 mg/dL | Chloride [1, 3]: 109 mmol/L and 111 mmol/L | Cholesterol [1, 3]: 153 mg/dL and 94 mg/dL | Creatinine [1, 3]: 0.7 mg/dL | GGT [1, 3]: <3 IU/L | Globulin [1, 3]: 2.2 g/dL and 2.3 g/dL | Glucose [1, 3]: 90 mg/dL and 82 mg/dL | Lipase [1, 3]: 57 IU/L | Magnesium [1, 3]: 1.9 mg/dL and 2.2 mg/dL | Na/K Ratio [1, 3]: 37 and 33.6 | Osomolality-Calc. [1, 3]: 293.8 mOsm/kg and 293.4 mOsm/kg | Phosphorus [1, 3]: 4.1 mg/dL and 4.7 mg/dL | Potassium [1, 3]: 4 mmol/L and 4.4 mmol/L | Protein-Total [1, 3]: 6 g/dL and 5.9 g/dL | Sodium [1, 3]: 148 mmol/L | Urea Nitrogen [1, 3]: 17 mg/dL and 15 mg/dL | abnormalities in blood serum chemistry (in words) ([1]; one week after infusion): no hematology or serum chemistry abnormalities | AUC, fold larger than that of CP-DOX [2]: six-fold | plasma half-life, fold greater than that of CP-DOX [2]: three-fold | Apparent distribution volume VD [2, 4]: 0.02 ± 0.00 mL/g | Distribution half-life β t1/2 [2, 4]: 1.705 ± 0.822 h | Elimination rate constant kg [2, 4]: 0.02 ± 0.00 h⁻¹ | Plasma clearance CL [2, 4]: 0.0003 ± 0.0000 mL/h/g | Plasma to tissue rate constant kpt [2, 4]: 0.06 ± 0.03 h⁻¹ | Tissue to plasma rate constant ktp [2, 4]: 0.34 ± 0.17 h⁻¹ | Elimination half-life α t1/2 ([2]; cephalic vein, 27 DOX Equiv/m^−2 BSA or 0.9 mg DOX Equiv/kg BW, plasma DOX): 30.8 ± 2.0 h
